This is an account of results in article PMC12774660 (Nucleic Acids Research, 2026).

The experiment addresses T1, CPSF73 (human, UniProt Q9UKF6 1-684).
T1 sequence: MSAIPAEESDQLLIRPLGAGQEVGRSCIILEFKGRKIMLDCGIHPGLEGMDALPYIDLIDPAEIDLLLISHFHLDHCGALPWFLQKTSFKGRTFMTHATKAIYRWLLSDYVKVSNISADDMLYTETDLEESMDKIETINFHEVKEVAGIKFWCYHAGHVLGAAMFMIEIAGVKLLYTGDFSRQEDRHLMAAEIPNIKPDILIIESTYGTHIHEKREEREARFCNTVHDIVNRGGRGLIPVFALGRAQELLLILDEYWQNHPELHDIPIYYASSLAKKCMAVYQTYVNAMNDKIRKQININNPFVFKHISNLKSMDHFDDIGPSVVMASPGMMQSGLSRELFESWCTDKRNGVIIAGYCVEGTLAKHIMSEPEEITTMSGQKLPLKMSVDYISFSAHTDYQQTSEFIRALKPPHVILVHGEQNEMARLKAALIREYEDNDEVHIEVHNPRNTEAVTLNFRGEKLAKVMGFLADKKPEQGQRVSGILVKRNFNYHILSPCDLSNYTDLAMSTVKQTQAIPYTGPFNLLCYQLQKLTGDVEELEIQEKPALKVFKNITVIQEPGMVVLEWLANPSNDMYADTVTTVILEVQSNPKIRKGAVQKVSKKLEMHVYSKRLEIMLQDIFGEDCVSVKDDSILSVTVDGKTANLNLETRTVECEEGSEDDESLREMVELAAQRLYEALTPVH
Nature of the experiment: cell-based or functional assay.

B1: Lsm11 R109E/I110A/R112E/L113A/R114E/L116A (natural protein, human, UniProt P83369 1-360, looked up)
chain: MEERERGARSAGAGSPARPPSPRLDVSSDSFDPLLALYAPRLPPIPYPNAPCFNNVAEYESFLRTGVRGGGRGRGRARGAAAGSGVPAAPGPSGRTRRRPDAPAPDPEEAQEAERAMVAKEEGDGAAGAGRRGPGRSRKAPRNVLTRMPLHEGSPLGELHRCIREGVKVNVHIRTFKGLRGVCTGFLVAFDKFWNMALTDVDETYRKPVLGKAYERDSSLTLTRLFDRLKLQDSSKKEADSKSAVEDSTLSRYSQTSTWKLASVWGRADTGRGSHKRSRSVPSSLQASAREESRSELSGRTTRTDGSSVGGTFSRATTLSRGQSRKKKRKPKVDYQQVFTRHINQIFIRGENVLLVHLAQ
In the case of B1, the “cleavage activity of the U7 snRNP with sextuple mutant Lsm11 toward the H2a* substrate, compared to the wild-type, in the absence of SLBP” value is around 3 fold lower.
